Source: the supplement of paper PMC7877785
± gives the uncertainty stated by the source.

Assay: self-splicing fitness, log relative to wild type (ln ratio); higher = more splicing; Tetrahymena group I intron in knt gene, E. coli kanamycin selection, DiMSum; sequences stand for … in CUCUCU…GGAGGGAAAAGUUAUCAGGCAUGCACCUGGUAGCUAGUCUUUAAACCAAUAGAUUGCAUCGGUUUAAAAGGCAAGACCGUCAAAUUGCGGGAAAGGGGUCAACAGCCGUUCAGUACCAAGUCUCAGGGGAAACUUUGAGAUGGCCUUGCAAAGGGUAUGGUAAUAAGCUGACGGACAUGGUCCUAACCACGCAGCCAAGUCCUAAGUCAACAGAUCUUCUGUUGAUAUGGAUGCAGUUCACAGACUAAAUGUCGGUCGGGGAAGAUGUAUUCUUCUCAUAAGAUAUAGUCGGACCUCUCCUUAAUGGGAGCUAGCGGAUGAAGUGAUGCAACACUGGAGCCGCUGGGAACUAAUUUGUAUGCGAAAGUAUAUUGAUUAGUUUUGGAGUACUCGUGGUCG
Method in brief: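 The eight P1ex-region nucleotides of an intron in the knt kanamycin-resistance gene on pET-22b(+) were all randomised and the library put into E. coli BL21(DE3). Six replicate transformations were grown overnight at 37°C or 30°C on LB agar with or without 25 μg/mL kanamycin, together with 100 μg/mL carbenicillin, 50 μM IPTG and 0.2% rhamnose. Colonies were pooled and amplicon-sequenced on an Illumina HiSeq 2500. Fitness from DiMSum is the error-weighted combination of wild-type-normalised replicate fold changes, kanamycin over none.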

Sequence | self-splicing fitness (ln) (30 °C) | self-splicing fitness (ln) (37 °C)
AAAUAGCAAUAUUACGGUAG | -3.63 ± 0.22 | -2.62 ± 0.23
GGAUAGCAAUAUUACGUAAA | -2.12 ± 0.17 | -1.42 ± 0.2
UCAGAGCAAUAUUACGCUAG | -2.4 ± 0.12 | -2.95 ± 0.28
GUCAAGCAAUAUUACGCAGA | -3.23 ± 0.24 | -2.79 ± 0.3
AAAUAGCAAUAUUACGCCUC | -1.6 ± 0.14 | -0.0982 ± 0.17
UUGAAGCAAUAUUACGGCUA | -0.00358 ± 0.093 | -0.295 ± 0.096
UUGUAGCAAUAUUACGGAGU |  | -2.5 ± 0.36
AUUUAGCAAUAUUACGGUAG | -3.72 ± 0.27 | -2.03 ± 0.21
ACCUAGCAAUAUUACGUUAA | -2.38 ± 0.14 | -1.9 ± 0.17
ACACAGCAAUAUUACGAAGA | -2.48 ± 0.1 | -1.99 ± 0.12
GCCUAGCAAUAUUACGCUGC |  | -1.32 ± 0.21
GAAUAGCAAUAUUACGGACA | -0.557 ± 0.12 | -0.0249 ± 0.16
AGUGAGCAAUAUUACGUCAA | -0.971 ± 0.2 | -2.79 ± 0.36
UGCGAGCAAUAUUACGGUGU | -4.19 ± 0.23 | -3.16 ± 0.4
GUGGAGCAAUAUUACGUCAA | -1.28 ± 0.33 | -1.78 ± 0.32
GUUCAGCAAUAUUACGGGUC | -1.11 ± 0.11 | -1.35 ± 0.12
GAAGAGCAAUAUUACGAGGG | -3.54 ± 0.2 | -3.02 ± 0.28
CGGAAGCAAUAUUACGCAGA | -1.98 ± 0.33 | -2.01 ± 0.3
AACAAGCAAUAUUACGCAAA | -2.08 ± 0.17 | 0.267 ± 0.13
CGGGAGCAAUAUUACGGGUC |  | -2.97 ± 0.48
AUCUAGCAAUAUUACGCGAC | -2.29 ± 0.4 | -0.43 ± 0.39
GUAAAGCAAUAUUACGUCCG | -0.907 ± 0.088 | -0.395 ± 0.14
AAGGAGCAAUAUUACGAGGU | -3.6 ± 0.23 | -3.6 ± 0.47
GGGCAGCAAUAUUACGGCAC | -1.17 ± 0.16 | -0.328 ± 0.17
UCCAAGCAAUAUUACGCCGC | -2.64 ± 0.32 | 

Sequence | self-splicing fitness (ln) (30 °C) | self-splicing fitness (ln) (37 °C)
GGGUAGCAAUAUUACGAUCG | -0.211 ± 0.16 | -0.869 ± 0.22
UGCUAGCAAUAUUACGUUGC | -3.53 ± 0.34 | -1.77 ± 0.23
AUAAAGCAAUAUUACGGCGU | 0.632 ± 0.068 | 0.894 ± 0.1
UUCGAGCAAUAUUACGACGC |  | -2.67 ± 0.48
CUUCAGCAAUAUUACGUAAU | -2.76 ± 0.13 | -0.639 ± 0.1
ACCAAGCAAUAUUACGUGUU | -3.99 ± 0.093 | -1.54 ± 0.075
CCGCAGCAAUAUUACGGGGU | -3.54 ± 0.14 | -2.21 ± 0.13
UAGGAGCAAUAUUACGAGAU |  | -1.95 ± 0.36
UUGCAGCAAUAUUACGAAAA | -1.02 ± 0.12 | -0.432 ± 0.12
UCUAAGCAAUAUUACGUGGU | -2.45 ± 0.12 | -2 ± 0.14
ACACAGCAAUAUUACGGAGC | -2.36 ± 0.13 | -1.52 ± 0.12
ACAAAGCAAUAUUACGGUUC | -3.12 ± 0.13 | -1.93 ± 0.17
UUACAGCAAUAUUACGGGGU | -4.73 ± 0.22 | -3.21 ± 0.17
GUGAAGCAAUAUUACGAUCU | -1.26 ± 0.13 | -0.0185 ± 0.12
GUAUAGCAAUAUUACGUCUC | -1.21 ± 0.15 | -0.282 ± 0.15
UGAGAGCAAUAUUACGCGAG | -3.56 ± 0.37 | -2.34 ± 0.22
UUUCAGCAAUAUUACGCGUA | -0.663 ± 0.086 | -0.289 ± 0.088
ACCAAGCAAUAUUACGAACG | -1.61 ± 0.076 | -0.581 ± 0.087
GGUGAGCAAUAUUACGUGCC | -3.67 ± 0.33 | -2.67 ± 0.38
UAGCAGCAAUAUUACGUCAG | -0.628 ± 0.1 | -1.13 ± 0.12
AAGAAGCAAUAUUACGUCUU | -2.83 ± 0.15 | -1.63 ± 0.14
UGUAAGCAAUAUUACGAAAU | -2.47 ± 0.18 | -0.0192 ± 0.17
UGCAAGCAAUAUUACGACCC | -2.05 ± 0.49 | 0.223 ± 0.43
CAGUAGCAAUAUUACGAUGA | -1.92 ± 0.24 | 0.175 ± 0.18
CUACAGCAAUAUUACGCUCA | -4.47 ± 0.42 | -2.6 ± 0.39

Sequence | self-splicing fitness (ln) (30 °C) | self-splicing fitness (ln) (37 °C)
UUGGAGCAAUAUUACGUUUU | -1.64 ± 0.19 | -2.55 ± 0.18
UCAAAGCAAUAUUACGGAUA | -3.12 ± 0.18 | -1.94 ± 0.14
CAUCAGCAAUAUUACGGGGU | -4.39 ± 0.25 | -2.11 ± 0.25
UUACAGCAAUAUUACGGGUG | -1.05 ± 0.061 | -0.414 ± 0.077
CAGGAGCAAUAUUACGCCUG | -3.09 ± 0.29 | -1.01 ± 0.22
GCCUAGCAAUAUUACGUCGU | -0.763 ± 0.068 | -0.337 ± 0.069
UAAGAGCAAUAUUACGUUUA | -2.31 ± 0.12 | -1.36 ± 0.13
UGAUAGCAAUAUUACGAUUU | -1.76 ± 0.1 | -1.13 ± 0.12
AAGUAGCAAUAUUACGGGAU | -3.14 ± 0.15 | -1.61 ± 0.14
AAGUAGCAAUAUUACGUCGG | -2.97 ± 0.25 | -2.09 ± 0.26
AUAAAGCAAUAUUACGCAGU | -1.89 ± 0.11 | -0.968 ± 0.096
GCCGAGCAAUAUUACGUGGU | -3.39 ± 0.14 | -2.47 ± 0.16
CCGAAGCAAUAUUACGAAUU | -3.28 ± 0.4 | -2.87 ± 0.28
GGUAAGCAAUAUUACGACGC | 0.697 ± 0.17 | 0.22 ± 0.21
CUAUAGCAAUAUUACGUACU | -3.66 ± 0.47 | 
UAAUAGCAAUAUUACGGCUG | -0.00933 ± 0.11 | -0.0273 ± 0.16
GGAUAGCAAUAUUACGGGGA | -3.41 ± 0.29 | -3.52 ± 0.42
GCAUAGCAAUAUUACGAUCC | -0.993 ± 0.19 | 0.0935 ± 0.28
CUUUAGCAAUAUUACGCUUU | -2.36 ± 0.36 | -1.45 ± 0.41
UUGUAGCAAUAUUACGCCCU | -0.23 ± 0.24 | -0.0821 ± 0.2
UCGAAGCAAUAUUACGACCG | -0.853 ± 0.12 | -0.898 ± 0.14
UACUAGCAAUAUUACGCUUC | -2.88 ± 0.17 | -1.66 ± 0.26
UAACAGCAAUAUUACGGUUU | -1.14 ± 0.05 | -0.621 ± 0.063
UCCUAGCAAUAUUACGCUAG | -3.47 ± 0.44 | 
UCAUAGCAAUAUUACGAUAU | -3.76 ± 0.32 | -2.4 ± 0.29

Sequence | self-splicing fitness (ln) (30 °C) | self-splicing fitness (ln) (37 °C)
GAUGAGCAAUAUUACGGGUA | -3.19 ± 0.27 | -1.02 ± 0.17
UUUAAGCAAUAUUACGGUCC | -2.33 ± 0.3 | -1.25 ± 0.25
CAAAAGCAAUAUUACGGUCG | 0.0608 ± 0.056 | -0.107 ± 0.063
UUUGAGCAAUAUUACGAGUG | -3.74 ± 0.18 | -2.88 ± 0.2
GCAAAGCAAUAUUACGCUCA | -0.972 ± 0.13 | -0.0384 ± 0.16
GCCGAGCAAUAUUACGGCUA | -2.04 ± 0.35 | -1.35 ± 0.27
AGAUAGCAAUAUUACGCCUG | -1.13 ± 0.12 | -0.496 ± 0.13
GUCGAGCAAUAUUACGCUCG | -1.76 ± 0.37 | 
AACCAGCAAUAUUACGUACC | -0.685 ± 0.08 | 0.0338 ± 0.11
GGGAAGCAAUAUUACGGGCA | -1.9 ± 0.19 | 0.154 ± 0.21
UCUAAGCAAUAUUACGUAGC | -2.23 ± 0.19 | -1.25 ± 0.2
AUAAAGCAAUAUUACGCAAA | -1.01 ± 0.1 | -1.03 ± 0.14
UCAAAGCAAUAUUACGGGCU | -2.34 ± 0.11 | -2.55 ± 0.14
UCCUAGCAAUAUUACGUGUC | -3.06 ± 0.34 | -2.71 ± 0.38
UAAUAGCAAUAUUACGUUCG | -0.563 ± 0.11 | 0.133 ± 0.12
UUCGAGCAAUAUUACGGUGG | -3.36 ± 0.27 | -1.07 ± 0.19
AACCAGCAAUAUUACGCAAU | -1.86 ± 0.081 | -0.25 ± 0.098
CUAGAGCAAUAUUACGAACG | 0.208 ± 0.12 | 0.617 ± 0.14
CCAAAGCAAUAUUACGUUAC | -3.75 ± 0.22 | -3.75 ± 0.36
CGGUAGCAAUAUUACGUGGA | -4.03 ± 0.27 | -2.26 ± 0.17
CCAGAGCAAUAUUACGUAUU | -3.91 ± 0.18 | -2.41 ± 0.17
CUCCAGCAAUAUUACGACCG | -0.451 ± 0.12 | -1.15 ± 0.2
UAAAAGCAAUAUUACGGUGA | -1.15 ± 0.077 | -0.788 ± 0.076
